The record followed here is the Human Domainome abundance scans (Beltran et al. 2025).

± gives the uncertainty stated by the source.

B1: Zinc finger MYM-type protein 2, residues 463 to 506; numbered along this chain, Q9UBW7 (parent)
chain: IMNCCEQCGEYLPSKGAGNNVLVIDGQQKRFCCQSCVSEYKQVG
B2: Transcription intermediary factor 1-beta, residues 620 to 671; numbered along this chain, Q13263 (parent)
chain: TLDDSATICRVCQKPGDLVMCNQCEFCFHLDCHLPALQDVPGEEWSCSLCHV

In the first data set the parent is B1. The data set is described as follows: abundance fitness (aPCA) (normalised: wild type 0, dead -1); higher = more abundant; growth selection in yeast, the domain comes from the species named. The settings on record: Homo sapiens.
As for IMNCCEQCGEYLPSKGAGNNCLVIDGQQKRFCCQSCVSEYKQVG [V21C], the abundance fitness is -0.302 ± 0.23.

For IMNCCEQCGEYLPYKGAGNNVLVIDGQQKRFCCQSCVSEYKQVG [S14Y], the abundance fitness is -0.802 ± 0.33.

On to IMNCCEQCGEYLPGKGAGNNVLVIDGQQKRFCCQSCVSEYKQVG [S14G], for which the abundance fitness was -0.098 ± 0.079.

IMNCCEQCGEYLPFKGAGNNVLVIDGQQKRFCCQSCVSEYKQVG [S14F]: the abundance fitness was -0.548 ± 0.18.

In the case of IMNCCEQCGEYLPSKGALNNVLVIDGQQKRFCCQSCVSEYKQVG [G18L], the abundance fitness was -0.432 ± 0.17.

Consider IMNCCEQCGEYLPSKGATNNVLVIDGQQKRFCCQSCVSEYKQVG [G18T], for which the abundance fitness is -0.377 ± 0.17.

For IMNCCEQCGEYLPSKGAENNVLVIDGQQKRFCCQSCVSEYKQVG [G18E], the abundance fitness was found to be 0.302 ± 0.12.

On to IMNCCEQCGEYLPSKGADNNVLVIDGQQKRFCCQSCVSEYKQVG [G18D], for which the abundance fitness came out at 0.59 ± 0.5.

As to IMNCCEQDGEYLPSKGAGNNVLVIDGQQKRFCCQSCVSEYKQVG [C8D], the abundance fitness was -0.77 ± 0.21.

Consider IMNCCEQCGEYLPSKGAGNNVLVIDGQQKRFCCQSCVSEYKQWG [V43W], for which the abundance fitness is -0.296 ± 0.16.

For the variant IMNCCEQCGEYLPSKGAGNNVLVIDGQQKRFCCQSCVSEYKQQG [V43Q], the abundance fitness was -0.055 ± 0.12.

Take IMNCCEQCGEYLPSKGAGNNVLVIDGQQKRFCCQSCVSEYKQHG [V43H]: the abundance fitness was -0.361 ± 0.34.

With IMNCCEQCGEYYPSKGAGNNVLVIDGQQKRFCCQSCVSEYKQVG [L12Y], the abundance fitness is -0.444 ± 0.12.

In the case of IMNCCEQCGEYQPSKGAGNNVLVIDGQQKRFCCQSCVSEYKQVG [L12Q], the abundance fitness is -0.294 ± 0.1.

On to IMNCCEQCGEYPPSKGAGNNVLVIDGQQKRFCCQSCVSEYKQVG [L12P], for which the abundance fitness was -0.14 ± 0.11.

Take IMNCCEQCGEYKPSKGAGNNVLVIDGQQKRFCCQSCVSEYKQVG [L12K]: the abundance fitness is -0.312 ± 0.093.

On to IMNCCEQCQEYLPSKGAGNNVLVIDGQQKRFCCQSCVSEYKQVG [G9Q], for which the abundance fitness was -0.067 ± 0.15.

As to IMNCCEQCGEYLPSKGAGNNVLVIDGQQKRFCCQSCVSEYLQVG [K41L], the abundance fitness was -0.122 ± 0.11.

For IMNCCEQCGEYLPSKGAGNNVLVIDGQQKRFCCQSCVSEYDQVG [K41D], the abundance fitness is 0.193 ± 0.12.

Consider IMNCCEQCGEYLPSKGAGNNVLVIDGQQKRFCCQSCVSEYGQVG [K41G], for which the abundance fitness stood at 0.042 ± 0.09.

With IMNHCEQCGEYLPSKGAGNNVLVIDGQQKRFCCQSCVSEYKQVG [C4H], the abundance fitness stood at 0.019 ± 0.18.

Consider IMNSCEQCGEYLPSKGAGNNVLVIDGQQKRFCCQSCVSEYKQVG [C4S], for which the abundance fitness came out at 0.25 ± 0.11.

For IMNCCEQCGEYLPSKGAGNAVLVIDGQQKRFCCQSCVSEYKQVG [N20A], the abundance fitness was -0.037 ± 0.11.

On to IMNCCEQCGEYLPSKGAGNWVLVIDGQQKRFCCQSCVSEYKQVG [N20W], for which the abundance fitness is -0.191 ± 0.079.

Consider IMNCCEQCGEYLPSKGAGNVVLVIDGQQKRFCCQSCVSEYKQVG [N20V], for which the abundance fitness was -0.019 ± 0.083.

With IMNCCEQCGEYLPSKGAGNNVLVIDGQQKRKCCQSCVSEYKQVG [F31K], the abundance fitness was -0.719 ± 0.27.

With IMNCCEQCGEYLPSKGAGNNVLVIDGQQKRHCCQSCVSEYKQVG [F31H], the abundance fitness is -0.273 ± 0.16.

As to IMNCCEQCGEYLPSKGAGNNVLVIDGQQKRLCCQSCVSEYKQVG [F31L], the abundance fitness was -0.248 ± 0.083.

Regarding IMNCCEQCGEYLPSKGAGNNVLVIDGQQKRQCCQSCVSEYKQVG [F31Q], the abundance fitness was -0.119 ± 0.097.

IMNCCEQCGEYLPSKGAGNNVLVIDGQQKRACCQSCVSEYKQVG [F31A]: the abundance fitness was -0.175 ± 0.074.

Take IMNCCEQCGEYLPSKGAGNNVLVIDGQQKFFCCQSCVSEYKQVG [R30F]: the abundance fitness is -0.088 ± 0.12.

For the variant IMNCCEQCGEYLPSKGAGNNVLVIDGQQKTFCCQSCVSEYKQVG [R30T], the abundance fitness came to 0.132 ± 0.091.

Take IMNCCEQCGEYLPSKGAGNNVLVIDGQQKKFCCQSCVSEYKQVG [R30K]: the abundance fitness stood at 0.216 ± 0.17.

Consider IMNCCEQCGEYLPSKGAGNNVYVIDGQQKRFCCQSCVSEYKQVG [L22Y], for which the abundance fitness came to 0.165 ± 0.14.

With IMNCCEQCGEYLPSKGAGNNVLVIDGQQKRFCCQSCVSEYKEVG [Q42E], the abundance fitness was -0.102 ± 0.11.

Take IMNCCEQCGEYLPSKGAGNNVLWIDGQQKRFCCQSCVSEYKQVG [V23W]: the abundance fitness was -0.063 ± 0.086.

On to IMNCCEQCGEYLPSKGAGNNVLHIDGQQKRFCCQSCVSEYKQVG [V23H], for which the abundance fitness was -0.079 ± 0.12.

For IMNCCEQCGEYLPSKGAGNNVLQIDGQQKRFCCQSCVSEYKQVG [V23Q], the abundance fitness came out at 0.181 ± 0.15.

As to IMNCCEQCGEYLPSKGAGNNVLKIDGQQKRFCCQSCVSEYKQVG [V23K], the abundance fitness is -0.052 ± 0.1.

Take IMNCCEQCGEYLPSKGAGNNVLYIDGQQKRFCCQSCVSEYKQVG [V23Y]: the abundance fitness was -0.093 ± 0.18.

Consider IMNCCEQCGEYLPSKGAGNNVLIIDGQQKRFCCQSCVSEYKQVG [V23I], for which the abundance fitness stood at 0.031 ± 0.12.

The variants in another data set derive from B2. The data set is described as above. The settings on record: Homo sapiens.
As to H51M, the abundance fitness is 0.021 ± 0.13.

With H51Q, the abundance fitness turned out to be 0.148 ± 0.16.

As to H51N, the abundance fitness is -0.528 ± 0.21.

Consider H51Y, for which the abundance fitness is -0.553 ± 0.41.

On to H51K, for which the abundance fitness is -0.415 ± 0.17.

Consider H51L, for which the abundance fitness is -0.063 ± 0.12.

Consider H51V, for which the abundance fitness was -0.023 ± 0.094.

H51P: the abundance fitness worked out at 0.248 ± 0.17.

With H51W, the abundance fitness is -0.345 ± 0.19.

Regarding H51R, the abundance fitness was determined as 0.081 ± 0.11.

With H51T, the abundance fitness was 0.31 ± 0.17.

Regarding H51S, the abundance fitness came out at 0.109 ± 0.11.

On to V52Y, for which the abundance fitness is -0.284 ± 0.39.

Regarding V52C, the abundance fitness was -0.289 ± 0.31.

Consider V52H, for which the abundance fitness was -0.479 ± 0.44.

For V52T, the abundance fitness is -0.11 ± 0.21.

For the variant V52R, the abundance fitness was 0.137 ± 0.15.

As to V52I, the abundance fitness was -0.354 ± 0.13.

For the variant V52F, the abundance fitness is -0.18 ± 0.19.

Turning to V52G, the abundance fitness is -0.32 ± 0.19.

Turning to V52A, the abundance fitness turned out to be 0.197 ± 0.14.

On to V52L, for which the abundance fitness is -0.369 ± 0.17.

In the case of V52S, the abundance fitness was determined as 0.075 ± 0.27.

V52P: the abundance fitness amounted to 0.041 ± 0.17.

For V52D, the abundance fitness was -0.267 ± 0.23.
